Source: patent US20130330359A1 (AbbVie / Abbott, published 2013)

T1: carrier free RGMa (R&D Systems) (UniProt Q96B86 48-422, limits assumed)
T1 construct: also called RGMa-CF
T1 sequence (looked up): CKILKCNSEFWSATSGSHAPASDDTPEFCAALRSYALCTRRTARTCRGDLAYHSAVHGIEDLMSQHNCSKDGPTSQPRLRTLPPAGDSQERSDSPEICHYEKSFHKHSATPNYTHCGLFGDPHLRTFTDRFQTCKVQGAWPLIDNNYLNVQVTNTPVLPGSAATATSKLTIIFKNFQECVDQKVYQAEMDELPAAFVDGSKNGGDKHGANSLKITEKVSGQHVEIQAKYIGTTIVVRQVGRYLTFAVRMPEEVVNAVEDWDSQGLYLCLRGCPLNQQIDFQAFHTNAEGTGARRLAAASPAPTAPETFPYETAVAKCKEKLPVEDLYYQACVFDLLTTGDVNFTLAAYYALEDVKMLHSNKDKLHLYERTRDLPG

T2: carrier free RGMc (R&D Systems) (human, UniProt Q6ZVN8 36-400)
T2 construct: also called RGMc-CF
T2 sequence (looked up): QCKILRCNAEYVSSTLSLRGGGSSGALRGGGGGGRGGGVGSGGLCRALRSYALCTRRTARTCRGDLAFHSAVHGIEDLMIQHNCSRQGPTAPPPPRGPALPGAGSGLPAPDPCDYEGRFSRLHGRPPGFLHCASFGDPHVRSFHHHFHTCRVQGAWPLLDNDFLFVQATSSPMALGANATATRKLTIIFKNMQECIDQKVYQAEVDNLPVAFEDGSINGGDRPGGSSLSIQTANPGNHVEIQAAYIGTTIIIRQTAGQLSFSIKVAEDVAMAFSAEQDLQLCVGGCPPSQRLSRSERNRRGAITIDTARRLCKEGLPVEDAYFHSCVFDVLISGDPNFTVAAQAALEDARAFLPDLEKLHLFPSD


What was measured:
[1] = target: T1, carrier free RGMa (R&D Systems); assay: EIA on coated carrier-free RGMa (summary of specificity)
Procedure: (§1) Clones were then tested for cross-reactivity with RGMa and RGMb by EIA. Carrier free RGMa, RGMb, or RGMc (R&D Systems) was coated on the solid phase of micro-titer EIA plates at 0.5 ug/mL. After the antigen had been coated on the solid phase, it was removed and any open binding sites on the plates were blocked using fish gel block solution. The wells were washed with distilled water following this incubation. Cell supernatants and control reagents were added to the blocked plates and allowed to incubate at room temperature for at least one hour. The negative control was a purified mouse mAb from a different antigen system. The positive control for RGMa, RGMb, & RGMc was a goat anti-RGMa, RGMb, or RGMc polyclonal antibody (R&D Systems). Following this incubation, the solutions were removed from the plates and they were washed with distilled water. Donkey anti-Goat IgG-HRPO diluted to approximately 200 ng/mL in block solution was added to the plates with the positive control test samples and goat anti-mouse IgG-HRPO (Jackson Immunoresearch) diluted to approximately 200 ng/mL in block solution was added to the plates with the fusion #1 test samples. All plates were allowed to incubate for 30 minutes at room temperature. The plates were washed with distilled water and o-phenylenediamine substrate was used as the chromogen to generate signal. Plates were read at 492 nm and the results were analyzed.

[2] = target: T1, carrier free RGMa (R&D Systems); assay: direct EIA: carrier-free RGMa coated at 0.5 ug/mL; supernatant diluted 1:125; goat anti-mouse IgG-HRPO
Procedure: as §1

[3] = target: T2, carrier free RGMc (R&D Systems); assay: direct EIA: carrier-free RGMc coated at 0.5 ug/mL; supernatant diluted 1:125; goat anti-mouse IgG-HRPO
Procedure: as §1

Binder | binding result [1] | absorbance at 492 nm [2] | absorbance at 492 nm [3]
1A-2989-187 (antibody, V domains shown) VH: EVQLQQSGAELVRSGASVKLSCTASGFNIRDFYIHWVKQRPEQGLEWLGWIDPENGDIEYAPKFQGKATMTADTSSNTAYLQLNSLTSEDTALYYCNGNGYYLDYWGQGTTLTVSS VL: not shown | no binding | 0.07 | 1.58
1A-2860-475 (antibody, V domains shown, The parent line 1A-2860 and subclone 1A-2860-177 used in the assays are treated here as the same antibody; also called 1A-2860-177) VH: DVLLQESGPDLVKPSQSLSLTCTVTGYSISSGYSWHWIRQFPGNKLEWMAYIHYTGNTNYNPSLKSRISITRDTSKNQFFLHLNSVTTEDTATYYCALFGLSGFWGQGTLVTVSA VL: DVLMTQTPLSLPVSLGDQASISCRSSQTIVHSNGNTYLDWYLQKPGQSPKVLIYKVSNRFSGVPDRFSGSGSGTDFTLKISRVEAEDLGVYFCLQGSHVPWTFGGGTQLEIKR | no binding | 0.08 | 1.34
1B-3363-715 (antibody, V domains shown, The parent line 1B-3363 and subclone 1B-3363-502 used in the assays are treated here as the same antibody; also called 1B-3363-502) VH: DVQLQESGPDLVKPSQSLSLTCTVTGYSITSGYSWHWIRQFPGNKLEWMGYIHYSGNTDYNPSLKSRISFTRDTSKNQFFLQLNSVTTEDTATYFCAIGTGPWGQGTTLTVSS VL: DVLMTQTPLSLPVSLGDQASISCRSSQNIVHSNGHTYLEWYLQKPGQSPKLLIYKVSNRFSGVPDRFSGSGSGTDFTLKISRVEAEDLGVYYCFQGSHVPWTFGGGTKLEIKR | no binding | 0.09 | 2.53
